In US20080213836A1:

Assays:
[1] = target: Medaka EP-1 serine protease domain (wild-type) (Oryzias latipes (Japanese Medaka)); assay: cell-based or functional assay
[2] = target: Medaka EP-2 serine protease domain (Oryzias latipes (Japanese Medaka)); assay: cell-based or functional assay

Chain of Medaka EP-1 serine protease domain (wild-type) (Oryzias latipes (Japanese Medaka)) (chain, as listed by the source limits assumed): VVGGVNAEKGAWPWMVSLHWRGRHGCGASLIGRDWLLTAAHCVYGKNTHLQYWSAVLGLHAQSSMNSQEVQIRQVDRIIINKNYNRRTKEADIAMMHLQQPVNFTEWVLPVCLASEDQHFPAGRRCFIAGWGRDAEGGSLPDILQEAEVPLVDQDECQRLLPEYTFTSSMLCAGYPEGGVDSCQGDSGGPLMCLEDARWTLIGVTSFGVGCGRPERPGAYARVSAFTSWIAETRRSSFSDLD

Q: Which results are given for SBTI (from UniProt P01070 25-205)?
A: Inhibition (%) of GD4K-βNA hydrolysis at 0.1 mg/ml [1]: 99%; Inhibition (%) of GD4K-βNA hydrolysis at 0.1 mg/ml [2]: 99%
